Results taken from patent US20260028415A1 (FULL LIFE TECHNOLOGIES HK, published 2026).

B1: anti-CEACAM5 single domain antibody of SEQ ID NO: 7 (VHH)
VHH: EVQLVESGGGLVQAGGSLRLSCAASGRTFSRDVMGWFRQAPGKEREFVAVINWTDSTYYLDSVKGRFTISRENAENTVYLQMNSLKPEDTAIYYCATGIGGLYRRPSAYKYWGQGTQVTVSS
notes: tags or Fc in the assays are not described
B2: anti-CEACAM5 single domain antibody of SEQ ID NO: 10 (VHH)
VHH: EVDLMESGGGLVQPGGSLRLSCTASGDTLDYYAIDWFRQAPGKEREGVSCISSRGGTTNYADAVKGRFTISRDNAKNTVYLQMNSLRPEDTAVYYCAAEFTGWAVCNFSRKSGEYDYWGQGTQVTVSS
notes: as for B1
B3: anti-CEACAM5 single domain antibody of SEQ ID NO: 4 (VHH)
VHH: EVQLVESGGGLVQPGESLRLSCAASGFSFSSYAMSWVRQPPGMGIEWVAEIDSGGGSTDYAVPVKGRFTISRDNVKNTLYLQMNSLKPEDTAVFYCAKGTHADFGSWGQGTQVTVSS
notes: as for B1
B4: anti-CEACAM5 single domain antibody of SEQ ID NO: 9 (VHH)
VHH: QVQLVESGGGLVQPGESLRLSCAASGFTFSSYAMSWVRQPPGKGIEWVAEIDSGGDRTDYAVPVKGRFTISRDNVENTLYLQMNSLKPEDTAVFYCAKGTHADFGSWGQGTLVTVSS
notes: as for B1
B5: anti-CEACAM5 single domain antibody of SEQ ID NO: 5 (VHH)
VHH: EVDLVESGGGLVQAGGSLRLSCAPSGRTSSLDTMAWFRQAPGKEREFVASTNWNRGGASYADSVKGRFTISRDATKNTVYLQINSLEPEDTAVYYCAASTRGIVSDNYWGQGTQVTVSS
notes: as for B1
B6: anti-CEACAM5 single domain antibody of SEQ ID NO: 6 (VHH)
VHH: EVQLVESGGGLVQPGGSLRLSCAASRGTFSRLDMGWFRQAPGKEREFVASSTWSGGTAYATDSVKTRFTISRDSAKTTVYLQMNSLRPEDTAVYYCAAGLSLEQHTPPYWGQGTQVTVSS
notes: as for B1
B7: anti-CEACAM5 single domain antibody of SEQ ID NO: 1 (VHH)
VHH: EVQLVESGGGLVQAGGSLRLSCVASTRIAGMGWYRAPPGKGRELVASISEEGTTTYAVPVEGRFTVSRDNVKNMLHLQMNSLKPEDTAMYYCVARRTFPSVVEGVDYWGQGTQVTVSS
notes: Alpaca sdAb clone expressed in E. coli
B8: anti-CEACAM5 single domain antibody of SEQ ID NO: 8 (VHH)
VHH: AVQLVESGGGLVQAGGSLRLSCAASGRTFSSYWLGWFRQVPGEEREFVAAISWSGSGVVTNYADSVKGRFTISRDDGNNALYLQMSNLNPEDTAVYYCAARLGTYYKDYARSGAYDTWGQGTQVTVSS
notes: as for B1
B9: anti-CEACAM5 single domain antibody of SEQ ID NO: 2 (VHH)
VHH: QLQLVESGGGLVQPGGSLRLSCAVSGDRWDYYAIGWIRQAPGKEREGVSCISSSGRTTNYADSVKGRFTISRDNAKNTVYLQMNSLKPEDTAVYYCSTEFTGWDRCGFDEYDHRGQGTQVTVSS
notes: as for B1
B10: anti-CEACAM5 single domain antibody of SEQ ID NO: 3 (VHH)
VHH: EVDLVESGGGLVQPGGSLRLSCAASGFTFSSYYMSWVRQPPGKGIEWVSEISSGGGSTNYAVPVEGRFTISRDNAKNTLSLQMNSLKPEDTALYYCARGSHADFNSWGQGTQVTVSS
notes: as for B1

Columns and labels:
[1] = molecular target: T1, human CEACAM5 expressed on MKN45 cells (human, UniProt P06731 35-685); assay: flow cytometry on MKN45 cells, 300 nm [sic], PE-anti human Fc secondary; negative control
T1 sequence: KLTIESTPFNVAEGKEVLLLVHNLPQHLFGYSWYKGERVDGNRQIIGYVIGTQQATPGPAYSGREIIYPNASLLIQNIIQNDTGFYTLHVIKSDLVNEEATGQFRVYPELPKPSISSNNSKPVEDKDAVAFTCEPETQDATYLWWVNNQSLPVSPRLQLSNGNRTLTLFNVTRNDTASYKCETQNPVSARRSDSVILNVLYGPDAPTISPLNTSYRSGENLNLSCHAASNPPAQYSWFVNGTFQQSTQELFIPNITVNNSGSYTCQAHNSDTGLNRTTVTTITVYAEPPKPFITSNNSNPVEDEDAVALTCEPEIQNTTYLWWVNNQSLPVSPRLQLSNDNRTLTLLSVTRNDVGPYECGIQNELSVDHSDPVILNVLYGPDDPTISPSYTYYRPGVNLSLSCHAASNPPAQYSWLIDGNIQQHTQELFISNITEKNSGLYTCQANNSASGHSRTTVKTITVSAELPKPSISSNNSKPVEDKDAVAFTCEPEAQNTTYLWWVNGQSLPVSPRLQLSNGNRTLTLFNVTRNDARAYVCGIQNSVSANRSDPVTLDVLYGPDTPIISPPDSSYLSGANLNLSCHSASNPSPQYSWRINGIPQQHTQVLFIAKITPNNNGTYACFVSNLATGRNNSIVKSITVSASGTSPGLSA

[2] = molecular target: T2, Human CEACAM5 A3B3 domain (human, UniProt P06731 499-685); assay: SPR (Biacore T200), A3B3 domain captured on anti-human Fc CM5 chip, sdAb injected, 1:1 Langmuir
T2 construct: also called human A3B3 domain; not shown: The human Fc part (and any linker) implied by capture on an anti-human Fc antibody chip
T2 sequence: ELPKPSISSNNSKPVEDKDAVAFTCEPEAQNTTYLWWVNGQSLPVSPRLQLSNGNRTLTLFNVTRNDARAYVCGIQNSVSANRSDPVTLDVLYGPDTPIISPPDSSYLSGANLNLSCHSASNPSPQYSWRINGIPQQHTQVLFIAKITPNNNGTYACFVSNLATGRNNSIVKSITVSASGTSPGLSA

[3] = molecular target: T1, human CEACAM5 expressed on MKN45 cells; assay: cell-based or functional assay
[4] = molecular target: T1, human CEACAM5 expressed on MKN45 cells; assay: flow cytometry on MKN45 cells, sdAb at 300 nm as printed, PE-anti human Fc secondary

Molecule | Geometric mean MFI [1] [MFI] | Kd [2] [nM] | koff [2] [s⁻¹] | kon [2] [M⁻¹ s⁻¹] | EC50 (read off the curve), internalization by pHrodo [3] [nM] | Geometric mean MFI [4] [MFI]
Human IgG1 isotype (antibody) | 12.9 |  |  |  |  | 
B1 |  | 19 | 0.013 | 688000 |  | 
B2 |  | 48.9 | 0.0137 | 280000 | ~20 | 
B3 |  | 2 | 0.000311 | 155000 |  | 394
B4 |  | 0.732 |  |  | 25 to 30 | 382
B5 |  | 9.74 | 0.00208 | 214000 | ~20 | 292
B6 |  | 7.77 | 0.00126 | 162000 |  | 647
B7 |  | 0.362 | 4.46e-05 | 123000 | ~20 | 292
B8 |  | 19.1 | 0.00243 | 127000 |  | 636
B9 |  | 0.533 | 0.000997 | 1.87e+06 |  | 565
B10 |  | 7.74 | 0.0032 | 414000 |  | 
